Laboratory results as given in PMC4994250.

Molecular target: human CASKIN2 SAM1-SAM2 tandem (483-634), G537D/K540E double mutant (human) (UniProt Q8WXE0)
Assay: AUC; sedimentation velocity, 300 mM NaCl, 20 mM sodium phosphate pH 7.8, 20 °C, 50,000 rpm; 10 and 34 μM loading, Kd fitted from the 34 μM experiment; monomer-dimer equilibrium (dimer to monomers)

“human CASKIN2 SAM1-SAM2 tandem (483-634), G537D/K540E double mutant (from UniProt Q8WXE0 483-634) (domain or fragment)” showed a Kd of 99.8 µM.
